# Laboratory results reported in article PMC7431413.
# Biological target: recombinant tyrosine phosphorylated STAT3 dimer (pY705 STAT3-CF) (human) (UniProt P40763)
# Experiment: SEC; purified STAT3-CF co-expressed with the ABL1 kinase domain; immunoblot for pY705
substance,measurement,value
recombinant tyrosine phosphorylated STAT3 dimer (pY705 STAT3-CF) (from UniProt P40763 127-722) (domain or fragment),stoichiometry N,2
